From EP4772193A1 (Teijin Pharma Limited, dated 2026) come the findings set out here.

Experiment [1] addresses T1, recombinant human soluble gpNMB (recombinant human gpNMB-FLAG-His) (human, UniProt Q14956 23-498).
T1 sequence: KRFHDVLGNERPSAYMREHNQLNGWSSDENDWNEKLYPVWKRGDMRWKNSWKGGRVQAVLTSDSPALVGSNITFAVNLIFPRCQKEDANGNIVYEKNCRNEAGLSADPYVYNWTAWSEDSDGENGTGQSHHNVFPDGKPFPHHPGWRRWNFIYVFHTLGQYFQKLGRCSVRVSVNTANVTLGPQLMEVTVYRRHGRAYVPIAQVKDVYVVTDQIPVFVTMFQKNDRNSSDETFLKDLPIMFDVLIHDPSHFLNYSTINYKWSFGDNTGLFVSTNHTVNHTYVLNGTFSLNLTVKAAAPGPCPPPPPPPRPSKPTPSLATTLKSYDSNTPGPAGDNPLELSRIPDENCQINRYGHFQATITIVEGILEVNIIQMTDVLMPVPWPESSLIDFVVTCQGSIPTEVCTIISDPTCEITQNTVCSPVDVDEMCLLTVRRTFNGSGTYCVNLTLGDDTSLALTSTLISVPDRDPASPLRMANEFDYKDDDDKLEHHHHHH
Briefly: antigen ELISA, vs hGPN18-2_H2L3. For orientation: An ELISA detects its analyte on a solid surface through an enzyme-linked reagent.

Experiment [2] addresses T1, recombinant human soluble gpNMB …. Briefly: antigen ELISA.
For experiment [3] the target is unchanged. As to the kind of experiment: antigen ELISA, vs hGPN06-1_H1L1.
Experiment [4] has the same target. As to the kind of experiment: antigen ELISA. This is another data set of the same source.

Where two headings read alike, the source gives them in different places.

B1: hGPN18-2_H2L3 VH D52A (antibody, V domains shown)
VH: QVQLVQSGPGLVQPTQTLTLTCSFSGFSLSTSVMGVGWIRQPSGKGLEWLAAIWWDDDKDYNPSLKSRLTISKDTSKNQVVLTMTNMDTVDTATYYCARTYYSNYEYYGMDYWGQGTLVTVSS
VL: DIVMTQSPDSLAVSLGERATINCRSSQTIILSNGNTYLEWYQQKPGQPPKLLIYKVSNRFSGVPDRFSGSGSGTDFTLTISSLQAEDVAVYYCFQGSHVPFTFGSGTKLEIKR
B1: the Relative binding activity in experiment [1] came out at 0.05. In experiment [2], the EC50 was 100 nM.

B2: hGPN18-2_H2L3 VH D58A (antibody, V domains shown)
VH: QVQLVQSGPGLVQPTQTLTLTCSFSGFSLSTSVMGVGWIRQPSGKGLEWLADIWWDDAKDYNPSLKSRLTISKDTSKNQVVLTMTNMDTVDTATYYCARTYYSNYEYYGMDYWGQGTLVTVSS
VL: DIVMTQSPDSLAVSLGERATINCRSSQTIILSNGNTYLEWYQQKPGQPPKLLIYKVSNRFSGVPDRFSGSGSGTDFTLTISSLQAEDVAVYYCFQGSHVPFTFGSGTKLEIKR
Consider B2, for which the Relative binding activity in experiment [1] was 0.5. Further, the EC50 in experiment [2] was found to be 10.2 nM.

B3: hGPN18-2_H2L3 VH D56A (antibody, V domains shown)
VH: QVQLVQSGPGLVQPTQTLTLTCSFSGFSLSTSVMGVGWIRQPSGKGLEWLADIWWADDKDYNPSLKSRLTISKDTSKNQVVLTMTNMDTVDTATYYCARTYYSNYEYYGMDYWGQGTLVTVSS
VL: DIVMTQSPDSLAVSLGERATINCRSSQTIILSNGNTYLEWYQQKPGQPPKLLIYKVSNRFSGVPDRFSGSGSGTDFTLTISSLQAEDVAVYYCFQGSHVPFTFGSGTKLEIKR
Turning to B3, the Relative binding activity in experiment [1] amounted to 0.63. The half-maximal effective concentration (EC50) in experiment [2] was determined as 8.98 nM.

B4: hGPN18-2_H2L3 VH D57A (antibody, V domains shown)
VH: QVQLVQSGPGLVQPTQTLTLTCSFSGFSLSTSVMGVGWIRQPSGKGLEWLADIWWDADKDYNPSLKSRLTISKDTSKNQVVLTMTNMDTVDTATYYCARTYYSNYEYYGMDYWGQGTLVTVSS
VL: DIVMTQSPDSLAVSLGERATINCRSSQTIILSNGNTYLEWYQQKPGQPPKLLIYKVSNRFSGVPDRFSGSGSGTDFTLTISSLQAEDVAVYYCFQGSHVPFTFGSGTKLEIKR
In the case of B4, the Relative binding activity in experiment [1] is 0.86. For the same molecule, in experiment [2], the half-maximal effective concentration (EC50) amounted to 5.61 nM.

B5: hGPN18-2_H2L3 VH D60A (antibody, V domains shown)
VH: QVQLVQSGPGLVQPTQTLTLTCSFSGFSLSTSVMGVGWIRQPSGKGLEWLADIWWDDDKAYNPSLKSRLTISKDTSKNQVVLTMTNMDTVDTATYYCARTYYSNYEYYGMDYWGQGTLVTVSS
VL: DIVMTQSPDSLAVSLGERATINCRSSQTIILSNGNTYLEWYQQKPGQPPKLLIYKVSNRFSGVPDRFSGSGSGTDFTLTISSLQAEDVAVYYCFQGSHVPFTFGSGTKLEIKR
Turning to B5, the Relative binding activity in experiment [1] came out at 0.98. The EC50 in experiment [2] was 3.13 nM.

B6: hGPN18-2_H2L3 VH F27A (antibody, V domains shown)
VH: QVQLVQSGPGLVQPTQTLTLTCSFSGASLSTSVMGVGWIRQPSGKGLEWLADIWWDDDKDYNPSLKSRLTISKDTSKNQVVLTMTNMDTVDTATYYCARTYYSNYEYYGMDYWGQGTLVTVSS
VL: DIVMTQSPDSLAVSLGERATINCRSSQTIILSNGNTYLEWYQQKPGQPPKLLIYKVSNRFSGVPDRFSGSGSGTDFTLTISSLQAEDVAVYYCFQGSHVPFTFGSGTKLEIKR
Regarding B6, the Relative binding activity in experiment [1] stood at 0.69. For the same molecule, the EC50 in experiment [2] was found to be 5.47 nM.

B7: hGPN06-1_H1L1 VL S26A (antibody, V domains shown)
VH: QVQLVQSGAEVKKPGASVKVSCKASGYTFTDNWMGWVKQRPGQGLEWIGAIDPSDSFTNYNQNFKGRVTMTVDTSISTAYMELSRLRSDDSAVYFCTRSGYYGSPKLGGDYWGQGTLVTVSS
VL: EIVLTQSPSSLSASVGDRVTITCSAASSISYMHWYQQKSGTAPKLLIYSTSNLASGVPSRFSGSGSGTDFTFTISSLQPEDAATYYCHQWNSYPCTFGGGTKLEIK
As for B7, the Relative binding activity in experiment [3] was 0.75. Besides, the EC50 in experiment [4] amounted to 1.09 nM.

B8: hGPN06-1_H1L1 VL T50A (antibody, V domains shown)
VH: QVQLVQSGAEVKKPGASVKVSCKASGYTFTDNWMGWVKQRPGQGLEWIGAIDPSDSFTNYNQNFKGRVTMTVDTSISTAYMELSRLRSDDSAVYFCTRSGYYGSPKLGGDYWGQGTLVTVSS
VL: EIVLTQSPSSLSASVGDRVTITCSASSSISYMHWYQQKSGTAPKLLIYSASNLASGVPSRFSGSGSGTDFTFTISSLQPEDAATYYCHQWNSYPCTFGGGTKLEIK
Turning to B8, in experiment [3], the Relative binding activity was found to be 0.3. The EC50 in experiment [4] came out at 3.19 nM.

B9: hGPN06-1_H1L1 VL S27A (antibody, V domains shown)
VH: QVQLVQSGAEVKKPGASVKVSCKASGYTFTDNWMGWVKQRPGQGLEWIGAIDPSDSFTNYNQNFKGRVTMTVDTSISTAYMELSRLRSDDSAVYFCTRSGYYGSPKLGGDYWGQGTLVTVSS
VL: EIVLTQSPSSLSASVGDRVTITCSASASISYMHWYQQKSGTAPKLLIYSTSNLASGVPSRFSGSGSGTDFTFTISSLQPEDAATYYCHQWNSYPCTFGGGTKLEIK
As to B9, the Relative binding activity in experiment [3] was found to be 0.99. For the same molecule, the EC50 in experiment [4] is 1.56 nM.

B10: hGPN06-1_H1L1 VL S51A (antibody, V domains shown)
VH: QVQLVQSGAEVKKPGASVKVSCKASGYTFTDNWMGWVKQRPGQGLEWIGAIDPSDSFTNYNQNFKGRVTMTVDTSISTAYMELSRLRSDDSAVYFCTRSGYYGSPKLGGDYWGQGTLVTVSS
VL: EIVLTQSPSSLSASVGDRVTITCSASSSISYMHWYQQKSGTAPKLLIYSTANLASGVPSRFSGSGSGTDFTFTISSLQPEDAATYYCHQWNSYPCTFGGGTKLEIK
As for B10, the Relative binding activity in experiment [3] turned out to be 0.82. Moreover, the half-maximal effective concentration (EC50) in experiment [4] worked out at 0.927 nM.

B11: hGPN06-1_H1L1 VL W90A (antibody, V domains shown)
VH: QVQLVQSGAEVKKPGASVKVSCKASGYTFTDNWMGWVKQRPGQGLEWIGAIDPSDSFTNYNQNFKGRVTMTVDTSISTAYMELSRLRSDDSAVYFCTRSGYYGSPKLGGDYWGQGTLVTVSS
VL: EIVLTQSPSSLSASVGDRVTITCSASSSISYMHWYQQKSGTAPKLLIYSTSNLASGVPSRFSGSGSGTDFTFTISSLQPEDAATYYCHQANSYPCTFGGGTKLEIK
In the case of B11, the Relative binding activity in experiment [3] turned out to be 0.13. Moreover, the EC50 in experiment [4] stood at 122 nM.

B12: hGPN06-1_H1L1 VL S49A (antibody, V domains shown)
VH: QVQLVQSGAEVKKPGASVKVSCKASGYTFTDNWMGWVKQRPGQGLEWIGAIDPSDSFTNYNQNFKGRVTMTVDTSISTAYMELSRLRSDDSAVYFCTRSGYYGSPKLGGDYWGQGTLVTVSS
VL: EIVLTQSPSSLSASVGDRVTITCSASSSISYMHWYQQKSGTAPKLLIYATSNLASGVPSRFSGSGSGTDFTFTISSLQPEDAATYYCHQWNSYPCTFGGGTKLEIK
For B12, the Relative binding activity in experiment [3] stood at 0.79. For the same molecule, the EC50 in experiment [4] stood at 0.7 nM.

B13: hGPN06-1_H1L1 VL S55A (antibody, V domains shown)
VH: QVQLVQSGAEVKKPGASVKVSCKASGYTFTDNWMGWVKQRPGQGLEWIGAIDPSDSFTNYNQNFKGRVTMTVDTSISTAYMELSRLRSDDSAVYFCTRSGYYGSPKLGGDYWGQGTLVTVSS
VL: EIVLTQSPSSLSASVGDRVTITCSASSSISYMHWYQQKSGTAPKLLIYSTSNLAAGVPSRFSGSGSGTDFTFTISSLQPEDAATYYCHQWNSYPCTFGGGTKLEIK
Regarding B13, the Relative binding activity in experiment [3] was 1. Moreover, in experiment [4], the EC50 was found to be 0.603 nM.

B14: hGPN06-1_H1L1 VL T96A (antibody, V domains shown)
VH: QVQLVQSGAEVKKPGASVKVSCKASGYTFTDNWMGWVKQRPGQGLEWIGAIDPSDSFTNYNQNFKGRVTMTVDTSISTAYMELSRLRSDDSAVYFCTRSGYYGSPKLGGDYWGQGTLVTVSS
VL: EIVLTQSPSSLSASVGDRVTITCSASSSISYMHWYQQKSGTAPKLLIYSTSNLASGVPSRFSGSGSGTDFTFTISSLQPEDAATYYCHQWNSYPCAFGGGTKLEIK
For the molecule B14, the Relative binding activity in experiment [3] turned out to be 0.83. The EC50 in experiment [4] was determined as 1.03 nM.

B15: hGPN06-1_H1L1 VL S28A (antibody, V domains shown)
VH: QVQLVQSGAEVKKPGASVKVSCKASGYTFTDNWMGWVKQRPGQGLEWIGAIDPSDSFTNYNQNFKGRVTMTVDTSISTAYMELSRLRSDDSAVYFCTRSGYYGSPKLGGDYWGQGTLVTVSS
VL: EIVLTQSPSSLSASVGDRVTITCSASSAISYMHWYQQKSGTAPKLLIYSTSNLASGVPSRFSGSGSGTDFTFTISSLQPEDAATYYCHQWNSYPCTFGGGTKLEIK
Take B15: the Relative binding activity in experiment [3] worked out at 1.18. For the same molecule, in experiment [4], the concentration for a half-maximal effect (EC50) was found to be 1.27 nM.

B16: hGPN06-1_H1L1 VL S30A (antibody, V domains shown)
VH: QVQLVQSGAEVKKPGASVKVSCKASGYTFTDNWMGWVKQRPGQGLEWIGAIDPSDSFTNYNQNFKGRVTMTVDTSISTAYMELSRLRSDDSAVYFCTRSGYYGSPKLGGDYWGQGTLVTVSS
VL: EIVLTQSPSSLSASVGDRVTITCSASSSIAYMHWYQQKSGTAPKLLIYSTSNLASGVPSRFSGSGSGTDFTFTISSLQPEDAATYYCHQWNSYPCTFGGGTKLEIK
Turning to B16, the Relative binding activity in experiment [3] was 0.58. Further, the EC50 in experiment [4] stood at 8.63 nM.

B17: hGPN06-1_H1L1 VL S92A (antibody, V domains shown)
VH: QVQLVQSGAEVKKPGASVKVSCKASGYTFTDNWMGWVKQRPGQGLEWIGAIDPSDSFTNYNQNFKGRVTMTVDTSISTAYMELSRLRSDDSAVYFCTRSGYYGSPKLGGDYWGQGTLVTVSS
VL: EIVLTQSPSSLSASVGDRVTITCSASSSISYMHWYQQKSGTAPKLLIYSTSNLASGVPSRFSGSGSGTDFTFTISSLQPEDAATYYCHQWNAYPCTFGGGTKLEIK
Take B17: in experiment [3], the Relative binding activity is 0.19. In addition, the EC50 in experiment [4] was 1.86 nM.

As a reminder, the EC50 is the concentration giving half of the maximal effect.
